Experimental findings from patent US20030180895A1 are described below.

Holding throughout (test): cell-based or functional assay
For experiment [1], the target named is Bacillus subtilis wild type xylanase A (Bacillus subtilis) (UniProt P18429).
Experiment [2] has as its target Bacillus subtilis xylanase A mutant Y166F (Bacillus subtilis) (UniProt P18429).
Experiment [3] deals with Bacillus subtilis xylanase A mutant D11S (Bacillus subtilis) (UniProt P18429).
Experiment [4] deals with Bacillus subtilis xylanase A mutant D11F/R122D (Bacillus subtilis) (UniProt P18429).
Experiment [5] deals with Bacillus subtilis xylanase A mutant G12F (Bacillus subtilis) (UniProt P18429).
The target in experiment [6] is Bacillus subtilis xylanase A mutant R122F (Bacillus subtilis) (UniProt P18429).

Consider wheat endogenous xylanase inhibitor, for which the Relative inhibition, % at 1, 26 XIU/ml in experiment [1] is 75%; in experiment [2], 74%; in experiment [3], 98%; in experiment [4] it was 109%; in experiment [5], 110%; in experiment [6], 93%. The Relative inhibition, % at 3, 15 XIU/ml was found to be 40% in experiment [1]; 39% in experiment [2]; 81% in experiment [3]; 111% in experiment [4]; 106% in experiment [5]; 74% in experiment [6]. Besides, the Relative inhibition, % at 6, 3 XIU/ml in experiment [1] is 24%; in experiment [2], 22%; in experiment [3], 60%; in experiment [4], 110%; in experiment [5] it was 100%; in experiment [6], 58%. In addition, the Relative inhibition, % at 12, 6 XIU/ml amounted to 20% in experiment [1]; 20% in experiment [2]; 38% in experiment [3]; 109% in experiment [4]; 92% in experiment [5]; 58% in experiment [6].
